Experimental data: patent publication CN112812179A (UNIV BEIJING, dated 2021)

How the values were obtained:
[1] = target: T1, 人CMTM6氨基酸序列2到24位氨基酸的多肽 (CMTM6 N2-24) (human, UniProt Q9NX76 2-24, C末端耦联BSA (the BSA conjugate is the one made for ELISA, paragraph 46; the KLH conjugate was used for immunisation)); experiment: indirect ELISA, serially diluted peptide coated on the plate
T1 construct: range 2-24; also called CMTM6 N2-24多肽; BSA耦联的CMTM6 N2-24多肽
T1 peptide (looked up): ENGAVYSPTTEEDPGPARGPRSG

[2] = target: T2, Flag-CMTM6 (overexpressed in HEK293T cells) (human, UniProt Q9NX76 1-183); experiment: Western blot of HEK293T lysates, 1 ug/mL primary antibody; empty-vector control gave no signal
T2 construct: Detected in denatured cell lysate by Western blot; the band is 26 kD; also called Flag-CMTM6融合表达载体; not shown: Flag tag
T2 sequence (looked up): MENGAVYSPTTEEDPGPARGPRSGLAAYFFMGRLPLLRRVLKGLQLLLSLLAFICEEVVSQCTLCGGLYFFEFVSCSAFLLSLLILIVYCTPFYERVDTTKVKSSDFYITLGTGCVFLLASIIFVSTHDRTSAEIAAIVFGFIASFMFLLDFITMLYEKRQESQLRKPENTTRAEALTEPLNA

[3] = target: T3, 人CMTM6 (endogenous, in 786-O cells and colon cancer tissue) (human, UniProt Q9NX76 1-183); experiment: Western blot of 786-O lysates, compared with CMTM6 knockout clones 2E7 and 4D10
T3 construct: whole, on cells
T3 sequence (looked up): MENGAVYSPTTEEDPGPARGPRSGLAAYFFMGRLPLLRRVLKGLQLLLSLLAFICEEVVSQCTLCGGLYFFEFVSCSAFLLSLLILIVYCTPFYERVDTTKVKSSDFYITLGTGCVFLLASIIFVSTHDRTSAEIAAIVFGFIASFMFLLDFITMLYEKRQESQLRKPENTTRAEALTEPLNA

Binder | binding result [1] | binding result [2] | binding result [3]
1-19重链(HC)和轻链(LC)超表达上清 (recombinant 1-19 from HEK293T cells co-transfected with heavy and light chain plasmids) (antibody, V domains shown, Full-length light and heavy chains amplified from 1-19 hybridoma cDNA, cloned into pcDNA3.1 and expressed in HEK293T; see the note of m1 for the printed FR/CDR pieces; also called 共转染本发明抗体1-19重轻链质粒的HEK293T细胞上清) VH: EVQLQQSGAELVKPGASVKLSCASSGFNIKDTYIHWVKRRPEQGLEWIGRIDPANGKTYFHSNFQGKATITADTSSNTAHLELSSLTSEDTAVYYCAFLYDGPIDYWGQGTSVTVSS VL: DVLMTQTPLSLPVSLGDQASISCRSSQSIVYRDGNTYLDWYLQKPGQSPKLLIYKVSNRFSGVPDRFSGSGSGTDFTLKISRVEAEDLGVYYCFQGSLFPYTFGGGTKLEI | binds |  | 
鼠抗人CMTM6单克隆抗体1-19 (purified from hybridoma supernatant) (antibody, V domains shown, also called 1-19mAb; 本发明抗体1-19) VH: EVQLQQSGAELVKPGASVKLSCASSGFNIKDTYIHWVKRRPEQGLEWIGRIDPANGKTYFHSNFQGKATITADTSSNTAHLELSSLTSEDTAVYYCAFLYDGPIDYWGQGTSVTVSS VL: DVLMTQTPLSLPVSLGDQASISCRSSQSIVYRDGNTYLDWYLQKPGQSPKLLIYKVSNRFSGVPDRFSGSGSGTDFTLKISRVEAEDLGVYYCFQGSLFPYTFGGGTKLEI |  | binds | binds
